Results: patent publication US20250051437A1
Each block holds one substance with its values, some of them ahead of it.

Legend:
[1] = molecular target: human cadherin-17 (CDH17), endogenously expressed on human cancer cell lines (LS513, SNU-C1, PaTu8988s, HPAF-II) (human) (UniProt Q12864); assay: indirect flow cytometry (iQue) on LS513 cells (CDH17+); secondary antibody only, background control
BT474 Cells = assay: KinExA using BT474 Cells
[2] = molecular target: human cadherin-17 (CDH17), endogenously expressed on human cancer cell lines (LS513, SNU-C1, PaTu8988s, HPAF-II) (human) (UniProt Q12864); assay: flow cytometry (iQue) on LS513 cells; secondary antibody only, background control
[3] = molecular target: human cadherin-17 (CDH17), endogenously expressed on human cancer cell lines (LS513, SNU-C1, PaTu8988s, HPAF-II) (human) (UniProt Q12864); assay: flow cytometry (iQue) on SNUC1 cells; secondary antibody only, background control
[4] = molecular target: human cadherin-17 (CDH17), endogenously expressed on human cancer cell lines (LS513, SNU-C1, PaTu8988s, HPAF-II) (human) (UniProt Q12864); assay: flow cytometry (iQue) on PATU8988S cells; secondary antibody only, background control
[5] = molecular target: human CDH17-mGFP fusion protein overexpressed on HEK293T cells (clone G11) (human) (UniProt Q12864); assay: flow cytometry (iQue) on HEK293T CDH17 mGFP clone G11 (human); secondary antibody only, background control
[6] = molecular target: human CDH17-mGFP fusion protein overexpressed on HEK293T cells (clone G11) (human) (UniProt Q12864); assay: flow cytometry (BD C6), secondary antibody alone on HEK293T CDH17 mGFP G11 cells; on HEK293T Parental: 507.66
[7] = molecular target: mouse CDH17-mGFP fusion protein overexpressed on HEK293T cells (mouse) (UniProt Q9R100); assay: flow cytometry (BD C6), secondary antibody alone on HEK293T Mouse CDH17 mGFP cells; on HEK293T Parental: 507.66
[8] = molecular target: rat CDH17 fused to moxGFP, overexpressed on HEK293T cells (rat) (UniProt P55281); assay: flow cytometry (BD C6), secondary antibody alone on HEK293T Rat CDH17 moxGFP cells; on HEK293T Parental: 507.66
[9] = molecular target: monkey (crab-eating macaque) CDH17 fused to moxGFP, overexpressed on HEK293T cells (monkey (crab-eating macaque)); assay: flow cytometry (BD C6), secondary antibody alone on HEK293T Macaque CDH17 moxGFP cells; on HEK293T Parental: 507.66

Sequence of mouse CDH17-mGFP fusion protein overexpressed on HEK293T cells (mouse) (Q9R100 26-827): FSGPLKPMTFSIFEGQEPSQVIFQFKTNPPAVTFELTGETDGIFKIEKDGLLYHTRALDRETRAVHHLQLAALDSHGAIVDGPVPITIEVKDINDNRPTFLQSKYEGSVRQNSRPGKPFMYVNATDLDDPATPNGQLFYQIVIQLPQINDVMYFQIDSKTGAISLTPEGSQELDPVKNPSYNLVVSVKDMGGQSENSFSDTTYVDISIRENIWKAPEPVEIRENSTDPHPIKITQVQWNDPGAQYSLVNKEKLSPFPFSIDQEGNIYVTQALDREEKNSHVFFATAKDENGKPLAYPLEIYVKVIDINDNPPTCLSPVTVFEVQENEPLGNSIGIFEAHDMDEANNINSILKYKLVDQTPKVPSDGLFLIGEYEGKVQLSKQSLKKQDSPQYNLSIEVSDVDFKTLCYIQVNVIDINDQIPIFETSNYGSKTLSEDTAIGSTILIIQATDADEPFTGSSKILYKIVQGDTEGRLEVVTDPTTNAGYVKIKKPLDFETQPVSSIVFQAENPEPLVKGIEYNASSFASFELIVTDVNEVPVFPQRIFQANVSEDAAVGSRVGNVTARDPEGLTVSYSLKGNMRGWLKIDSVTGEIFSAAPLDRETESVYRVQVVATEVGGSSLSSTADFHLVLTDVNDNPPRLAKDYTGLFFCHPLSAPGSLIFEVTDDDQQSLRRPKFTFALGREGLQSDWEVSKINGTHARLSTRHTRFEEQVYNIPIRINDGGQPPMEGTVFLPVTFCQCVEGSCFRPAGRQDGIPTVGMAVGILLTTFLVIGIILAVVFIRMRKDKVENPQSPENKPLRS
Sequence of rat CDH17 fused to moxGFP, overexpressed on HEK293T cells (rat) (P55281 22-827): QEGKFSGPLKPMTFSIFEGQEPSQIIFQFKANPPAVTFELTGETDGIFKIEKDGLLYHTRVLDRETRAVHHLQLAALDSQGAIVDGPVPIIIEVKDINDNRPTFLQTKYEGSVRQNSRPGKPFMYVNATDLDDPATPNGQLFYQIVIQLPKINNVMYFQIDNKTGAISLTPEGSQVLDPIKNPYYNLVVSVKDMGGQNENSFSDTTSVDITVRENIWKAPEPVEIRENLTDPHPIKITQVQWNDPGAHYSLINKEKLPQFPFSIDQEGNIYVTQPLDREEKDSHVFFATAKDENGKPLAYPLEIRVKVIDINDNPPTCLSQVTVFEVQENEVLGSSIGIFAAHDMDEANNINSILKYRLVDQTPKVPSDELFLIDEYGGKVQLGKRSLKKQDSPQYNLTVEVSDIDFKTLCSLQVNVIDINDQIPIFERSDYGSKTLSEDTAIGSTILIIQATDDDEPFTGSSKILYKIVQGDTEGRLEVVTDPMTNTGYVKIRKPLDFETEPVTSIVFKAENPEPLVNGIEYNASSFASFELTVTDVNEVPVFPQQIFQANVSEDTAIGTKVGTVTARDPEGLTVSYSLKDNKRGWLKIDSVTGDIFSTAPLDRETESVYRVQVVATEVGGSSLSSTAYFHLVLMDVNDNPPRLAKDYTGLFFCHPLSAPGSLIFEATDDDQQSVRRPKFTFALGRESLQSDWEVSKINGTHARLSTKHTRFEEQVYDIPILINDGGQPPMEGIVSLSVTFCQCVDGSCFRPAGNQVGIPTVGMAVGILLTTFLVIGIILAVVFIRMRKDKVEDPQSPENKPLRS

FL4-H [1]: 33200
Substance: AF647-anti-his tag 2° Ab (secondary antibody alone, control)

Kd (BT474 Cells): 769 pM
Substance: Herceptin (antibody)

Antibody Binding Activity by Flow iQue [2]: 4900 | Antibody Binding Activity by Flow iQue [3]: 3900 | Antibody Binding Activity by Flow iQue [4]: 5930 | Antibody Binding Activity by Flow iQue [5]: 1960 | FL4-H [6]: 727 | FL4-H [7]: 740 | FL4-H [8]: 633 | FL4-H [9]: 720
Substance: fluorochrome-labelled anti-human IgG secondary antibody alone (2nd Ab only control)
